The term Kd denotes the equilibrium constant for the complex coming apart. The EC50 is the concentration that produces a half-maximal response. By EC50 (read off the curve) is commonly meant the concentration that produces a half-maximal response. Lower therefore signals a more potent agent.

The source of these data is patent US8133978 (GlaxoSmithKline, dated 2012).

For experiment [1], the target named is T1, Human interleukin-18 (recombinant human IL-18) (human, UniProt Q14116 37-193).
T1 construct: also called hIL-18
T1 sequence: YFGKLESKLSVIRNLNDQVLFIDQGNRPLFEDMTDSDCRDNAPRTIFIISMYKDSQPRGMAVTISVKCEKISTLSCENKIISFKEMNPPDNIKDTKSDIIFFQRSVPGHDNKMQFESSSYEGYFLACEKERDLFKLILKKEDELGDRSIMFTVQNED
Briefly: SPR, Biacore T100, Protein A capture, 25 C, mean n = 3. As to the method:
(§1) The methodology was basically the same as for the method used in Example 4a above; Protein A was immobilised on a CM5 chip at densities of between 2000-6000 RU's by primary amine coupling. Runs were carried out in HBS-EP (Biacore™). The anti-IL-18 antibodies were captured to densities of between 100-500 RUs, human IL-18 was passed over this captured surface at concentrations between 16-0.0625 nM, with 0 nM concentration (i.e., a buffer only injection of captured antibody) used for double referencing. Regeneration after each injection of IL-18 was by mild acidic elution using two injections of 10 mM glycine, pH1.5. […] The binding curves obtained were analysed using the analysis software inherent to the T100 machine using the 1:1 model of binding. Runs were carried out at the temperatures indicated.
These experiments were carried out as described above. Table 6 details the kinetic parameters obtained. […] H1L2 has a better on-rate (ka) than H1L1.
(In general: SPR reads the build-up and loss of mass on a sensor chip optically.)

Experiment [2] concerns the target T1, Human interleukin-18 (recombinant human …). Briefly: SPR, Biacore T100, Protein A capture, 37 C, mean n = 2. As to the method: as §1
Experiment [3] has the same target. The experiment is described as follows: SPR, Biacore 3000, antibody captured on Protein A, 25 C. As for the experimental part: Biacore™ kinetic analysis of the humanised 2C10 antibodies was carried out on a Biacore™ 3000 instrument using Protein A capture of the antibodies in HBS-EP buffer (Biacore™). Briefly, Protein A was immobilised on a CM5 chip by primary amine coupling, using manufacturers recommended protocol, to densities around 2000-4000 resonance units (RU's). Humanised antibody was then passed over the Protein A surface and captured to levels of around 200-500 RU's, after a period of stabilisation, IL-18 (human or Rhesus) was passed over the captured antibody surface at defined concentrations and binding sensorgrams were obtained. […] All curves were double referenced against a buffer injection instead of IL-18 and the data was fitted to the 1:1 binding model using the global fit parameters in BiaEval 4.1. Off-rate ranking experiments were set up using the same Protein A capture method, however, only a single concentration of IL-18 was used (10 nM). Whilst the data was fitted using the same binding model as the kinetic analysis, since only one concentration of analyte was used on the off-rate is reported, this value is useful for ranking rather than giving an exact kinetic measurement and was used as a way of selecting which antibodies would be further investigated. […]

Experiment [4] concerns the target T2, Rhesus IL-18 (rhesus (rhesus/cynomolgus)).
T2 construct: also called Rhesus/Cynomolgus IL-18; rhesus/cynomolgus IL-18
Described as above. As to the method:
(§2) Biacore™ kinetic analysis of the humanised 2C10 antibodies was carried out on a Biacore™ 3000 instrument using Protein A capture of the antibodies in HBS-EP buffer (Biacore™). Briefly, Protein A was immobilised on a CM5 chip by primary amine coupling, using manufacturers recommended protocol, to densities around 2000-4000 resonance units (RU's). Humanised antibody was then passed over the Protein A surface and captured to levels of around 200-500 RU's, after a period of stabilisation, IL-18 (human or Rhesus) was passed over the captured antibody surface at defined concentrations and binding sensorgrams were obtained. […] All curves were double referenced against a buffer injection instead of IL-18 and the data was fitted to the 1:1 binding model using the global fit parameters in BiaEval 4.1. Off-rate ranking experiments were set up using the same Protein A capture method, however, only a single concentration of IL-18 was used (10 nM). Whilst the data was fitted using the same binding model as the kinetic analysis, since only one concentration of analyte was used on the off-rate is reported, this value is useful for ranking rather than giving an exact kinetic measurement and was used as a way of selecting which antibodies would be further investigated.
(§3) Based upon these observations selected antibodies were investigated in greater detail for binding to human and Rhesus IL-18 at 37° C. The data shown in Table 4b for human IL-18 is the mean (and standard deviation) of six separate determinations.

Experiment [5] concerns the target T1, Human interleukin-18 (recombinant human …). The experiment is described as follows: ELISA, human IL-18 captured by 16D10, antibody titrated. As to the method: ELISA with all nine humanised variants was carried out at least 6 times using various batches of purified antibody preparation. FIGS. 4A-4C show representative data from one experiment which generated the EC50 value ranking illustrated in Table 7. Human IL-18 was immobilized on Nunc Maxisorp 96-well plates using 2.5 µg/ml of 16D10 (non-neutralising mouse monoclonal antibody) to capture 5 ng/ml of recombinant human IL-18. Anti-IL-18 humanised antibodies were added at various dilutions. Bound humanised antibodies were detected using anti-human IgG Fc specific peroxidase conjugate (Sigma A0170).
In general terms: An ELISA detects its analyte on a solid surface through an enzyme-linked reagent.

Experiment [6] has as its target T2, Rhesus IL-18. The experiment is described as follows: Rhesus IL18 binding ELISA, antibody titrated, OD 490 nm.
The target of experiment [7] is T2, Rhesus IL-18. The experiment is described as follows: Rhesus IL-18 binding ELISA, antibody titrated, OD 490 nm.
In experiment [8] the target is T1, Human interleukin-18 (recombinant human …). Briefly: ELISA, antibody on plate, human IL-18 captured, detected by 16D10; 37 C, in serum. As for the experimental part: (§4) ELISA was carried out with the three Humanised H1 variants; H1L1, H1L2 and H1L3 to assess binding to human IL-18 at room temperature and at 37° C. in both human serum and in block solution (PBS 0.05% TWEEN with 1% BSA (w/v)). The Humanised antibody variants were immobilised on Nunc Maxisorp 96-well plates at 2.5 µg/ml. Capture of 5 ng/ml of recombinant human IL-18 was carried out either at room temperature or 37° C. in human serum or block solution. Anti-IL-18 mouse monoclonal antibody 16D10 was added. The bound mouse antibody was detected using anti-mouse kappa peroxidase conjugate (Serotec MCA 1291P). Representative EC50 values generated from the study data are illustrated in Table 9.

The target is the same in experiment [9]. Briefly: ELISA, antibody on plate, human IL-18 captured, detected by 16D10; 37 C, blocking buffer. As for the experimental part:
as §4

Experiment [10] has the same target. The experiment is described as follows: ELISA, antibody on plate, human IL-18 captured, detected by 16D10; room temperature, in serum. As for the experimental part:
as §4

Experiment [11] shares this target. Briefly: ELISA, antibody on plate, human IL-18 captured, detected by 16D10; room temperature, blocking buffer. As for the experimental part:
as §4

Experiment [12] shares this target. Briefly: cell-based or functional assay.
The target is the same in experiment [13]. Briefly: SPR, Biacore T100, Protein A capture, 37 C, mean n = 3. As for the experimental part: as §1
For experiment [14] the target is unchanged. The experiment is described as follows: SPR, Biacore 3000, antibody captured on Protein A, 37 C. As to the method:
as §2, §3

In experiment [15] the target is T2, Rhesus IL-18. Described as above. As to the method: as §2, §3

B1: 2C10 rat-human chimera (chimaeric antibody 2C10c) (antibody, V domains shown)
VH: EVQLQQSGAELVRPGTSVKLSCKVSGEISTGYYFHFVRRRPGQGLEWIGRIDPEDDSTKYAERFKDRATLTAQTSSNTAYLNLSSLTSEDTATYFCTTWRIYRDSSGRPFYVMDAWGQGTLVTVSS
VL: DIQMTQSPASLSASLGETVSIECLASEDIYTYLTWYQQKPGKSPQLLIYGANKLQDGVPSRFSGSGSGTQYSLKISGIQPEDEGDYFCLQGSKFPLTFGSGTKLEIKR
notes: Rat 2C10 V regions joined to human IgG1 and kappa C regions; also called Chimera 2C10; 2C10 Chimera
On to B1, for which the Kd in experiment [1] turned out to be 0.0091 nM; in [2], 0.0229 nM; in experiment [3], 0.0139 nM; with Rhesus IL-18 [4], 0.0547 nM. Moreover, the EC50 came to 7 ng/mL in experiment [5]; 10.1 ng/mL in experiment [8]; 3.79 ng/mL in experiment [9]; 7.3 ng/mL in experiment [10]; 3.81 ng/mL in experiment [11]. The “EC50 (read off the curve)” value in the experiment with Rhesus IL-18 [6] is approximately 20 ng/mL; with Rhesus IL-18 [7], approximately 10 ng/mL.

B2: H1L3 humanised anti-IL-18 antibody (antibody, human IgG1, kappa, V domains shown)
VH: QVQLVQSGAEVKKPGASVKVSCKVSGEISTGYYFHWVRQAPGKGLEWMGRIDPEDDSTKYAERFKDRVTMTEDTSTDTAYMELSSLRSEDTAVYYCTTWRIYRDSSGRPFYVMDAWGQGTLVTVSS
VL: DIQMTQSPSSVSASVGDRVTITCLASEDIYTYLTWYQQKPGKAPQLLIYGANKLQDGVPSRFSGSGSGTDYTLTISSLQPEDEGDYYCLQGSKFPLTFGQGTKLEIKR
notes: Human IgG1 / kappa
As for B2, the “% change vs 2C10 (IC50, KG-1 bioassay)” value in experiment [12] was found to be 71.6%. In addition, the Kd in experiment [1] was 0.022 nM; in [13], 0.0648 nM; in experiment [3], 0.0225 nM; in the experiment with Rhesus IL-18 [4] it was 0.109 nM; in [14], 0.188 nM; with Rhesus IL-18 [15], 0.17 nM. Moreover, the EC50 came to 11 ng/mL in [5]; 11.4 ng/mL in experiment [8]; 3.33 ng/mL in experiment [9]; 8.99 ng/mL in [10]; 3.79 ng/mL in experiment [11].
